Target: the molecule itself
Assay: native MS

B1: Bacillus subtilis pyruvate kinase PykA (enzyme, B. subtilis, UniProt P80885 1-585, looked up)
chain: MRKTKIVCTIGPASESIEMLTKLMESGMNVARLNFSHGDFEEHGARIKNIREASKKLGKNVGILLDTKGPEIRTHTMENGGIELETGKELIISMDEVVGTTDKISVTYEGLVHDVEQGSTILLDDGLIGLEVLDVDAAKREIKTKVLNNGTLKNKKGVNVPGVSVNLPGITEKDARDIVFGIEQGVDFIAPSFIRRSTDVLEIRELLEEHNAQDIQIIPKIENQEGVDNIDAILEVSDGLMVARGDLGVEIPAEEVPLVQKELIKKCNALGKPVITATQMLDSMQRNPRPTRAEASDVANAIFDGTDAIMLSGETAAGSYPVEAVQTMHNIASRSEEALNYKEILSKRRDQVGMTITDAIGQSVAHTAINLNAAAIVTPTESGHTARMIAKYRPQAPIVAVTVNDSISRKLALVSGVFAESGQNASSTDEMLEDAVQKSLNSGIVKHGDLIVITAGTVGESGTTNLMKVHTVGDIIAKGQGIGRKSAYGPVVVAQNAKEAEQKMTDGAVLVTKSTDRDMIASLEKASALITEEGGLTSHAAVVGLSLGIPVIVGLENATSILTDGQDITVDASRGAVYQGRASVL
- stoichiometry N: 4
